Results as given in the supplement of paper PMC10567573.

B1: RAD51 (parent)
chain: APKKELINIKGISEAKADKILAEA

Variants of: B1
Test: protein stability index of a GFP-peptide fusion (GPS, HEK-293T) (PSI 1-6); higher = more stable
Conditions: c terminus: a fixed tail appended
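Note: lentivirally expressed fusions sorted by FACS into six bins by GFP to DsRed ratio, PSI derived from sequencing read proportions per bin multiplied by bin number.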

Protein stability index: each site, then its substitutions
S13: W 4.12, Y 3.71
A15: I 4.77, R 4.4, C 4.63, Y 3.58, Q 4.58, E 5.25, G 4.81, S 4.78, P 4.41, L 4.27, W 3.88, T 5.07, H 4.18, N 4.36, F 4.45, K 4.95, V 4.95, M 4.41, D 4.64
K19: D 4.98, A 3.63, F 3.7, E 5.12, Q 4.78, I 3.38, R 4.26, M 4.43, C 4.44, L 3.89, G 4.93, S 4.89, P 4.48, V 4.49, H 4.3, W 3.48, Y 4.61, N 4.84, T 4.83
A22: D 5.38, E 5.28, K 5.24, C 4.25, F 3.98, I 4.25, L 4.19, M 4.75, N 4.59, G 4.62, P 4.83, Q 5.15, H 4.52
D18: W 2.76, P 5.17, E 3.83, N 4.04, L 3.9, I 3.62, H 4.29, G 4.16, K 4.78, R 4.07, A 4.26, V 4.07, Y 2.63, S 3.53, M 3.31, C 3.36, T 4.04, Q 4.27, F 2.59
K16: R 4.53, H 4.78, G 5.01, S 4.61, L 3.28, E 5.08, Q 4.65, A 4.47, Y 3.93, P 4.84, T 5.22, I 3.8, W 1.64, C 4.63, V 3.98, N 5.08, M 3.59, D 5, F 3.67
A17: D 5.51, W 3.98, I 4.15, P 4.82, Q 5.11, G 4.84, V 4.53, H 4.49, C 5.04, E 5.22, Y 4.08, K 4.83, M 4.43, N 4.94, L 4.53, S 5, F 3.73, T 4.42, R 4.62
E14: M 4.23, R 4.05, W 3.89, H 4.58, I 3.68, D 4.99, A 4.4, Y 3.65, L 3.83, P 4.96, Q 4.76, C 3.66, T 4.43, S 4.23, K 4.4, N 4.84, F 3.48, G 4.8, V 4.81
L21: S 5.46, I 5.32, H 4.95, V 4.79, E 4.54, C 5.15, G 4.73, K 5.2, R 4.96, D 5.58, N 5.02, W 4.27, P 5.21, F 4.13, M 4.98, Q 5.18, A 4.91, T 5.25, Y 4.58
I20: A 5.03, M 5.16, S 4.95, E 5.33, L 4.86, V 4.97, D 5.47, R 4.75, P 5.5, W 4.26, Y 4.61, H 5.11, C 5.14, K 5.46, G 5.1, Q 5.69, N 5.38, T 5.16, F 4.02
